Target: (pY1-CTD)2, FAM-labelled tyrosine-phosphorylated CTD diheptad
Experiment: fluorescence polarisation

Question: “Spt6-tSH2 R1281E/S1284A/R1285E (from UniProt Q6FLB1 1250-1444) (domain or fragment)” was tested. Which Kd did it give?
Answer: 48.3 µM

From paper PMC7327521
